We go through 3 molecules from patent publication US20190218261A1, “TARGETED ENHANCED DNA DEMETHYLATION” (The Jackson Laboratory, priority 2016, published 2019).

The series has as its system hMLH1 expression (methylation-silenced hMLH1 promoter) in HEK293T cells. In words: hMLH1 mRNA levels by TaqMan qRT-PCR in transfected HEK293T cells. It is filed as cell-based, human. As for the experimental part: To test the system, HEK293T cells were transfected with Casilio-ME components including Ct or Nt-fusion TET1-effector and a combination of 3 or 2 sgRNAs. Relative levels of hMLH1 mRNA were determined in TaqMan assays by using RNA extracted from cells 60 hours post-transfection and GAPDH as endogenous control for normalization of qRT-PCR measurements.
Cell culture and transfection. HEK293T cells were cultivated in Dulbecco's modified Eagle's medium (DMEM)(Sigma) with 10% fetal bovine serum (FBS)(Lonza), 4% Glutamax (Gibco), 1% Sodium Pyruvate (Gibco) and penicillin-streptomycin (Gibco) in an incubator set to 37° C. and 5% CO2. When indicated cells were treated with 2.5 μM or 5 μM 5-Azacytidine (sigma) as indicated with a daily change of medium containing freshly diluted drug. Cells were seeded into 12-well plates at 150,000 cells per well the day before being transfected with 100 ng of dCas9 construct, 100 ng of modified sgRNA construct and 200 ng of PUF-fusion with Attractene transfection reagent according to manufacturer's instructions (Qiagen). In dCas9-direct fusion experiments, cells were transfected with 200 ng dCas9-fusion constructs and 200 ng of modified sgRNA constructs. Transfected cells were harvested 60 hours after transfection, or otherwise indicated, and cell pellets were used for extractions of RNA, genomic DNA and protein.
Quantitative RT-PCR analysis. Cells were harvested, washed with Dulbecco's phosphate-buffered saline (dPBS), centrifuged at 125×g for 5 min and then the flash-frozen pellets were stored at −80° C. RNA was extracted using RNeasy Plus Mini Kit according to the manufacturer's instructions (Qiagen). cDNA libraries were made using Applied Biosystems High Capacity RNA-to-cDNA kit with 200 ng to 1 μg of RNA. TaqMan gene expression assays (Applied Biosystems) were designed using GAPDH (Hs03929097, VIC) as endogenous control and hMLH1 (Hs00179866, FAM) as target. TaqMan Universal Master Mix II, with UNG (Applied Biosystems) was used for Quantitative PCR (qPCR), with 2 μl of diluted cDNA used for each reaction. Activation was analyzed with the Applied Biosystems ViiA7 instrument. Gene expression levels were calculated by “delta delta Ct” algorithm and normalized to control samples.
HEK293T cells were cultivated in Dulbecco's modified Eagle's medium (DMEM) (Sigma) with 10% fetal bovine serum (FBS) (Lonza), 4% Glutamax (Gibco), 1% Sodium Pyruvate (Gibco) and penicillin-streptomycin (Gibco) in an incubator set to 37° C. and 5% CO2. Cells were seeded into 12-well plates at 150,000 cells per well the day before being transfected with 100 ng of dCas9 construct, 100 ng of modified sgRNA construct and 200 ng of PUF-fusion with Attractene transfection reagent according to manufacturer's instructions (Qiagen). Transfected cells were harvested 3 days after transfection, or otherwise indicated, and cell pellets were used for RNA extractions.
Cells were harvested, washed with Dulbecco's phosphate-buffered saline (dPBS), centrifuged at 125×g for 5 min and then the flash-frozen pellets were stored at −80° C. RNA was extracted using RNeasy Plus Mini Kit according to the manufacturer's instructions (Qiagen). cDNA libraries were made using Applied Biosystems High Capacity RNA-to-cDNA kit with 200 ng to 2 μg of RNA. TaqMan gene expression assays (Applied Biosystems) were designed using GAPDH (Hs03929097, VIC) as endogenous control and hMLH1 (Hs00179866, FAM) as target. TaqMan Universal Master Mix II, with UNG (Applied Biosystems) was used for Quantitative PCR (qPCR), with 2 μl of diluted cDNA used for each reaction. Activation was analyzed with the Applied Biosystems ViiA7 instrument. Gene expression levels were calculated by “delta delta Ct” algorithm and normalized to control samples.
A general note: Real-time PCR tracks product formation cycle by cycle.

B1: TET1(CD)(H1671Y D1673A)-PUFa: catalytically dead TET1(CD) PUFa fusion; SEQ ID NO:110 (protein)
chain: MIDGGGGSDPKKKRKVDPKKKRKVDPKKKRKVGSTGSRNDGGGGSGGGGSGGGGSGRAGILPPKKKRKVSRGRSRLLEDFRNNRYPNLQLREIAGHIMEFSQDQHGSRFIQLKLERATPAERQLVFNEILQAAYQLMVDVFGNYVIQKFFEFGSLEQKLALAERIRGHVLSLALQMYGSRVIEKALEFIPSDQQNEMVRELDGHVLKCVKDQNGNHVVQKCIECVQPQSLQFIIDAFKGQVFALSTHPYGCRVIQRILEHCLPDQTLPILEELHQHTEQLVQDQYGNYVIQHVLEHGRPEDKSKIVAEIRGNVLVLSQHKFASNVVEKCVTHASRTERAVLIDEVCTMNDGPHSALYTMMKDQYANYVVQKMIDVAEPGQRKIVMHKIRPHIATLRKYTYGKHILAKLEKYYMKNGVDLGDPKKKRKVDPKKKRKVGGRGGGGSGGGGSGGGGSGPAELPTCSCLDRVIQKDKGPYYTHLGAGPSVAAVREIMENRYGQKGNAIRIEIVVYTGKEGKSSHGCPIAKWVLRRSSDEEKVLCLVRQRTGHHCPTAVMVVLIMVWDGIPLPMADRLYTELTENLKSYNGHPTDRRCTLNENRTCTCQGIDPETCGASFSFGCSWSMYFNGCKFGRSPSPRRFRIDPSSPLHEKNLEDNLQSLATRLAPIYKQYAPVAYQNQVEYENVARECRLGSKEGRPFSGVTACLDFCAHPYRAIHNMNNGSTVVCTLTREDNRSLGVIPQDEQLHVLPLYKLSDTDEFGSKEGMEAKIKSGAIEVLAPRRKKRTCFTQPVPRSGKKRAAMMTEVLAHKIRAVEKKPIPRIKRKNNSTTTNNSKPSSLPTLGSNTETVQPEVKSETEPHFILKSSDNTKTYSLMPSAPHPVKEASPGFSWSPKTASATPAPLKNDATASCGFSERSSTPHCTMPSGRLSGANAAAADGPGISQLGEVAPLPTLSAPVMEPLINSEPSTGVTEPLTPHQPNHQPSFLTSPQDLASSPMEEDEQHSEADEPPSDEPLSDDPLSPAEEKLPHIDEYWSDSEHIFLDANIGGVAIAPAHGSVLIECARRELHATTPVEHPNRNHPTRLSLVFYQHKNLNKPQHGFELNKIKFEAKEAKNKKMKASEQKDQAANEGPEQSSEVNELNQIPSHKALTLTHDNVVTVSPYALTHVAGPYNHWVID
Turning to B1, the “hMLH1 expression without TET1 catalytic activity” value (GADD45A expressed with catalytically dead TET1(CD) fusion or without TET1(CD) fusion) is listed as “no hMLH1 expression was detected”.

B2: PUFc-NEIL2: SEQ ID NO:127 (protein)
chain: MIDGGGGSDPKKKRKVDPKKKRKVDPKKKRKVGSTGSRNDGGGGSGGGGSGGGGSGRAGILPPKKKRKVSRGRSRLLEDFRNNRYPNLQLREIAGHIMEFSQDQHGSRFIQLKLERATPAERQLVFNEILQAAYQLMVDVFGNYVIQKFFEFGSLEQKLALAERIRGHVLSLALQMYGSRVIEKALEFIPSDQQNEMVRELDGHVLKCVKDQNGNHVVQKCIECVQPQSLQFIIDAFKGQVFALSTHPYGCRVIQRILEHCLPDQTLPILEELHQHTEQLVQDQYGSYVIEHVLEHGRPEDKSKIVAEIRGNVLVLSQHKFANNVVQKCVTHASRTERAVLIDEVCTMNDGPHSALYTMMKDQYANYVVQKMIDVAEPGQRKIVMHKIRPHIATLRKYTYGKHILAKLEKYYMKNGVDLGDPKKKRKVDPKKKRKVGGRGGGGSGGGGSGGGGSGPALPEGPLVRKFHHLVSPFVGQQVVKTGGSSKKLQPASLQSLWLQDTQVHGKKLFLRFDLDEEMGPPGSSPTPEPPQKEVQKEGAADPKQVGEPSGQKTLDGSSRSAELVPQGEDDSEYLERDAPAGDAGRWLRVSFGLFGSVWVNDFSRAKKANKRGDWRDPSPRLVLHFGGGGFLAFYNCQLSWSSSPVVTPTCDILSEKFHRGQALEALGQAQPVCYTLLDQRYFSGLGNIIKNEALYRAGIHPLSLGSVLSASRREVLVDHVVEFSTAWLQGKFQGRPQHTQVYQKEQCPAGHQVMKEAFGPEDGLQRLTWWCPQCQPQLSEEPEQCQFS
B2: the “stimulation of TET1(CD) mediated hMLH1 activation by independent NEIL2 module” value (dual expression with PUFa-TET1(CD), gRNAs with both PBSa/c) was “significant stimulation of the TET1(CD) mediated hMLH1 activation”.

B3: NEIL2: NEIL2 glycosylase enhancer, tested fused to PUFa-TET1(CD) (either PUFa terminus) or to PUFc (protein)
chain: MLPEGPLVRKFHHLVSPFVGQQVVKTGGSSKKLQPASLQSLWLQDTQVHGKKLFLRFDLDEEMGPPGSSPTPEPPQKEVQKEGAADPKQVGEPSGQKTLDGSSRSAELVPQGEDDSEYLERDAPAGDAGRWLRVSFGLFGSVWVNDFSRAKKANKRGDWRDPSPRLVLHFGGGGFLAFYNCQLSWSSSPVVTPTCDILSEKFHRGQALEALGQAQPVCYTLLDQRYFSGLGNIIKNEALYRAGIHPLSLGSVLSASRREVLVDHVVEFSTAWLQGKFQGRPQHTQVYQKEQCPAGHQVMKEAFGPEDGLQRLTWWCPQCQPQLSEEPEQCQFS
B3: where the note is “MLH1 gRNAs, NEIL2 at either PUFa terminus”, the “increase in gene activation with NEIL2 in the PUFa-TET1CD fusion (repeat experiment)” value is recorded as “four-fold increase in gene activation”. Further, under “co-expressed with PUFa-TET1(CD), gRNAs with PBSa/c, RT-quantitative PCR”, the “increase in hMLH1 expression with NEIL2 fused to PUFc” value amounted to 7 fold. In addition, the “hMLH1 activation by DNA glycosylase two-in-one effector fusions (in words)” value (fusions to PUFa-TET1(CD), gRNA 5xPBSa, HEK293T, 3 days) is listed as “enhanced activation of hMLH1”. The “effect on TET1-mediated gene activation when gRNA lacked PBSc” value (gRNA scaffold with PBSa only) was “no effect on TET1-mediated gene activation”. Further, the “hMLH1 activation relative to TET1 effector alone” value (two-in-one fusion to PUFa-TET1(CD)) came to 3 fold.
